Laboratory results reported in the supplement of paper PMC10724198.
± gives the standard deviation of the averaged measurements.

System: Saccharomyces cerevisiae
Test: protein stability index of tFT-peptide fusion (C-terminal peptide) (PSI (0-1 scale)); higher = more stable (slower turnover)
Conditions: genetic background: wild type; temperature: 30 C
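Further: PSI is a weighted mean of sequencing reads over stability bins, variants kept only with over 10 reads, mCherry proximal and sfGFP distal, peptide attached via GGGS linker.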

Sequence	protein stability index
WAERESLNGLSA	0.718 ± 0.027
WAFGSTVSSGIV	0.689 ± 0.017
WAGGFGGLGRDT	0.744 ± 0.0089
WAGGGRVDDGGG	0.643 ± 0.059
WAGLAQPKLVLH	0.659 ± 0.024
WAPHLPQPSRCS	0.743 ± 0.062
WARDLGAVAVQT	0.518 ± 0.075
WAVGLNPSGLGT	0.651 ± 0.063
WCMMSWMSQFRP	0.653 ± 0.015
WCPGVSGVAGVF	0.703 ± 0.056
WCPVHGSGGAPL	0.674 ± 0.026
WCVCTFGGCDFP	0.641 ± 0.012
WCVEGRATGRGW	0.674 ± 0.018
WCVRWGVVGPGL	0.634 ± 0.03
WDGAGGGFGLVV	0.726 ± 0.061
WDGGPTRSGGTG	0.711 ± 0.013
WDNGQVRLLRYV	0.593 ± 0.015
WEACLGRPEAGM	0.724 ± 0.064
WEEKLEGTPTGG	0.72 ± 0.072
WELVYLASLVQQ	0.666 ± 0.055
WEVGVGRQDVEW	0.7448 ± 0.0065
WFDGGGWLLFVV	0.557 ± 0.011
WFDWLAIAFYLT	0.526 ± 0.014
WFFVADVFKSWL	0.704 ± 0.039
WFRPPSVPEEEY	0.728 ± 0.048

Sequence	protein stability index
WFSCYSGQSSNF	0.757 ± 0.11
WFSGFLGEFNRF	0.706 ± 0.063
WFVVRGGLSPGG	0.695 ± 0.038
WGAGRGGAFFSG	0.6576 ± 0.0062
WGCCRPERNCAV	0.702 ± 0.02
WGFLCVALGRWV	0.644 ± 0.038
WGGAGGGSGYGR	0.68 ± 0.064
WGGCALEQGGAV	0.736 ± 0.025
WGGFGLGVCAKC	0.616 ± 0.072
WGGGGGGGPAGV	0.6659 ± 0.0021
WGGGGLRVSCGT	0.687 ± 0.093
WGGGGVLEVLLG	0.531 ± 0.008
WGGGGWRGGGAR	0.747 ± 0.033
WGGGLGTAVVGV	0.643 ± 0.021
WGGQRGWVEVWR	0.683 ± 0.04
WGKGGWHRRWGC	0.673 ± 0.0098
WGRRGSRGSWGA	0.733 ± 0.028
WGVVGEWAGVGR	0.747 ± 0.052
WGWGGHGIVRRE	0.812 ± 0.14
WGYAFVGVVRGA	0.661 ± 0.046
WGYEGGWGGHGT	0.659 ± 0.025
WHRAGRSRMSWS	0.777 ± 0.1
WIFRDHVLRRFP	0.661 ± 0.024
WIISERDRTEQT	0.733 ± 0.06
WIRTCMLIQGQT	0.736 ± 0.021

Sequence	protein stability index
WIRVYPDSSSPL	0.8557 ± 0.002
WKEMRKKVGRGK	0.696 ± 0.056
WKNTNSLRAPAL	0.675 ± 0.016
WLAGKAGASHRG	0.656 ± 0.0079
WLAIFFFSLSPF	0.525 ± 0.055
WLFAFLCSCFCV	0.71 ± 0.093
WLGFHFLFLWKC	0.587 ± 0.1
WLIKKIKTKQTR	0.758 ± 0.074
WLLGLRPTVSKE	0.756 ± 0.068
WLRRFIFGSVVN	0.657 ± 0.015
WPPRPPRPSSTL	0.724 ± 0.011
WPSCKVHSPSPS	0.675 ± 0.016
WPWLHSVACLYS	0.626 ± 0.09
WRAVVVSGTVAY	0.578 ± 0.025
WRGGAWVRGCVL	0.74 ± 0.04
WRGGWAETGGRE	0.705 ± 0.013
WRRCSGVGVGSP	0.663 ± 0.072
WRWCGLWDTRTY	0.819 ± 0.0085
WSFMYLYFFDSW	0.685 ± 0.086
WSGREGRGEWGW	0.791 ± 0.024
WSIVVDDISWSV	0.698 ± 0.013
WSLGPDVCGGVV	0.708 ± 0.027
WSPGGGPLGLYE	0.743 ± 0.018
WSRRGQRGKAWR	0.733 ± 0.12
WSRSGGWEKYGV	0.681 ± 0.024

Sequence	protein stability index
WSRVQFFYFCWI	0.547 ± 0.051
WSSTLFFFVGFS	0.673 ± 0.056
WSSTPSCVPDLP	0.721 ± 0.054
WSVVGVGGCGAR	0.712 ± 0.041
WSVVRGGGCGAR	0.697 ± 0.028
WTLELSGWLRSE	0.77 ± 0.079
WVCRVWGGWLRG	0.686 ± 0.044
WVGGGRAKAKRE	0.696 ± 0.054
WVGRIRGMEGWM	0.696 ± 0.037
WVGSWYVATGEA	0.754 ± 0.063
WVGYAWDGKFDL	0.736 ± 0.11
WVREFSHKHVMS	0.718 ± 0.01
WVRVSVPAVGRI	0.7035 ± 0.0067
WVSDTNNTSRRK	0.752 ± 0.051
WVSFVFCSLLGG	0.588 ± 0.018
WVSHMHLGSFVH	0.701 ± 0.09
WVSPALEALYRK	0.764 ± 0.07
WWFGGETGVGGR	0.712 ± 0.039
WWPDILWLNTGW	0.701 ± 0.035
WYIEYLNYTTEQ	0.697 ± 0.0089
WYKIQILDPNVG	0.749 ± 0.011
WYLRSFVVSTLQ	0.533 ± 0.065
YARVIFGGNWFS	0.552 ± 0.02
YASRVLCVGLVL	0.636 ± 0.094
YCGCSLSEMSWV	0.741 ± 0.037

Sequence	protein stability index
YCGPSAGREGGG	0.771 ± 0.081
YCGSVCRPYSYL	0.695 ± 0.057
YCLLCSFVGPPA	0.731 ± 0.19
YCPPHRCEAECI	0.657 ± 0.06
YCRGGGRAKREV	0.693 ± 0.014
YDDSSLLFSNNL	0.702 ± 0.0078
YDLGHYFSIPRL	0.747 ± 0.011
YDTGSRASWIAF	0.714 ± 0.067
YDVGSKAVLTLE	0.566 ± 0.0074
YEGVNLSWYRIR	0.676 ± 0.045
YENFHTRFAVGV	0.504 ± 0.037
YEPNYKEKKTQY	0.69 ± 0.017
YFAQCLDFFSLV	0.663 ± 0.019
YFCGRGSVLLVT	0.56 ± 0.014
YFGPSPTRPPVP	0.7225 ± 0.0015
YFLPESKIGRSG	0.705 ± 0.023
YFPFPPPLLSPP	0.766 ± 0.02
YGCVSPVAGFAN	0.7254 ± 0.0069
YGGGGWRGVALG	0.65 ± 0.043
YGVFALFLSSLS	0.576 ± 0.056
YHDVRSLGPSRT	0.666 ± 0.04
YIKAPCMRQSGG	0.704 ± 0.019
YILPTPKAFRSF	0.738 ± 0.17
YKNRKYNGKIRI	0.585 ± 0.18
YLCLPPALISRI	0.656 ± 0.029

Sequence	protein stability index
YLDTVALLSRVL	0.569 ± 0.027
YLFPFLCFSPPP	0.702 ± 0.072
YLGTETSLTSLK	0.786 ± 0.088
YLLKRSQSLLII	0.5 ± 0.014
YLPYRTCSWKYE	0.56 ± 0.022
YLYSCVCGVLSN	0.5472 ± 0.0049
YNINIKKENITE	0.68 ± 0.025
YNSTVVKKGRCP	0.7024 ± 0.0028
YPPLPVRPLVLL	0.515 ± 0.0056
YPPPPPPPPPRF	0.7367 ± 0.0056
YPPRLPSILPFP	0.696 ± 0.046
YPSLPQIVLATV	0.5033 ± 0.004
YQCPASSPVLSA	0.7191 ± 0.005
YQEIIKRQTGNK	0.745 ± 0.012
YQFAALRFTFPL	0.647 ± 0.044
YRDQAGTGSWRM	0.692 ± 0.023
YRGRGSDQYAGT	0.624 ± 0.058
YRHYVKLGPKPF	0.668 ± 0.024
YRKGWRREVGGG	0.699 ± 0.011
YRLAPVSLTMSS	0.706 ± 0.045
YRLDTFCPHFSN	0.752 ± 0.13
